Reference: patent US20240075137A1 (COMPUGEN, published 2024)

Tests used:
Cyno TIGIT-His [1] = target: T1, Cyno TIGIT-His; test: SPR (ProteOn), Cyno TIGIT-His
T1 construct: also called cyno TIGIT monomer (prepared in-house); C-terminal HIS-tagged cyno TIGIT ECD recombinant protein

[2] = target: T2, human TIGIT ECD with C-terminal polyhistidine tag (human, UniProt Q495A1 22-141); test: SPR (ProteOn), Human TIGIT-His
T2 construct: in-house or Sino Biological; also called hTIGIT-HIS; human TIGIT-HIS
T2 sequence: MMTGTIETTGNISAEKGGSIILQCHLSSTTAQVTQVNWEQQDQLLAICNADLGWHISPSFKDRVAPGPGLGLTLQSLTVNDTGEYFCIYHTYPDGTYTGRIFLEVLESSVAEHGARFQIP

[3] = target: T2, human TIGIT ECD with C-terminal …; test: KinExA equilibrium, His-tagged human TIGIT, n = 1
Description: (§1) KinExA equilibrium experiments were performed using a KinExA 3200 instrument (Sapidyne Instruments, Boise, ID, USA) at 22° C. Recombinant His-tagged human TIGIT was obtained from Sino Biologicals (Beijing, China) and reconstituted into 1×PBS. All antigen and antibody samples for KinExA analyses were prepared in degassed PBST buffer (PBS with 0.05% tween 20) with 100 ug/mL filtered BSA and 0.02% sodium azide. […] For each KinExA experiment, ˜20 lag of human TIGIT was diluted into 1 mL of 50 mM sodium carbonate, pH 9.2 which was added directly to 50 mg of azlactone beads (Ultralink Support, Thermo Scientific, Rockford, IL, USA) and rocked overnight at 4° C. After rocking, the beads were rinsed once with 1 M Tris buffer, pH 8.5, containing 10 mg/mL BSA and rocked for one hour at room temperature in the same buffer. Coupled beads were added to the bead reservoir in the KinExA instrument and diluted to ˜30 mL with 1×HBS-N (0.01 M Hepes, 0.15M NaCl, GE Healthcare) containing 0.02% sodium azide which was also the running buffer for the KinExA instrument. All antigen-coupled beads were used immediately after preparation.
(§2) The volume flowed through the bead pack for each equilibrated sample for all experiments ranged from 4 mL to 11 mL at a flow rate of 0.25 mL/min.

[4] = target: T2, human TIGIT ECD with C-terminal …; test: KinExA equilibrium, His-tagged human TIGIT, n = 2
Description: as §1, §2

[5] = target: T2, human TIGIT ECD with C-terminal …; test: SPR (ProteOn), mAb captured, human TIGIT injected; BM26 as hIgG4
Mouse TIGIT-His = target: T3, Mouse TIGIT-His (mouse, UniProt P86176); test: SPR (ProteOn), mAb captured, mouse TIGIT monomer injected; BM26 as hIgG4
T3 construct: also called mouse TIGIT monomer (prepared in-house)
T3 sequence (soluble monomer with His tag, looked up): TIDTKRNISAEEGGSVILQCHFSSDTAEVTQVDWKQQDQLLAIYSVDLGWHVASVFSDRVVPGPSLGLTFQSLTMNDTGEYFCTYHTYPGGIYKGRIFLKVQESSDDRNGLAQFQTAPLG

human TIGIT on cells [6] = target: T4, human TIGIT on cells (human, UniProt Q495A1 22-141); test: FACS titration of AF647-labelled mAb on human effector memory CD8+ T cells, Donor 321
T4 construct: also called Expi293 human TIGIT over-expressing cells
T4 sequence: T2 sequence

human TIGIT on cells [7] = target: T4, human TIGIT on cells; test: FACS titration of AF647-labelled mAb on human effector memory CD8+ T cells, Donor 322
human TIGIT on cells [8] = target: T4, human TIGIT on cells; test: FACS titration of AF647-labelled mAb on human effector memory CD8+ T cells, Donor 334
Cyno TIGIT-His [9] = target: T1, Cyno TIGIT-His; test: SPR (ProteOn), mAb captured, cyno TIGIT monomer injected; kd of this row held constant; BM26 as hIgG4
human TIGIT on cells [10] = target: T4, human TIGIT on cells; test: FACS blocking of human PVR-m2aFc binding to human TIGIT OE Expi293 cells; binding site concentration; n=1
human TIGIT on cells [11] = target: T4, human TIGIT on cells; test: FACS blocking of human PVR-m2aFc binding to human TIGIT OE Expi293 cells; binding site concentration; n=2
cyno TIGIT on cells [12] = target: T5, cyno TIGIT on cells (cynomolgus macaque); test: FACS titration of AF647-labelled mAb on cyno effector memory CD8+ T cells, Cyno Donor 1; isotype gMFI subtracted
T5 construct: whole, on cells; also called Expi293 cyno TIGIT over-expressing cells

cyno TIGIT on cells [13] = target: T5, cyno TIGIT on cells; test: FACS titration of AF647-labelled mAb on cyno effector memory CD8+ T cells, Cyno Donor 3; isotype gMFI subtracted
cyno TIGIT on cells [14] = target: T5, cyno TIGIT on cells; test: FACS titration on cyno TIGIT OE Expi293 cells, binding site concentration; ± 95% CI; 'Fit: Good'; panel of the lower row
Description: (§3) AF647-labeled goat anti-human F(ab′) (Jackson Immunoresearch) was added to the cells to detect binding of anti-TIGIT antibodies. The gMFI of the anti-TIGIT antibodies bound to the cyno TIGIT over-expressing Expi293 cells (black line), and the parental Expi293 cells (grey line) are shown.

human TIGIT on cells [15] = target: T4, human TIGIT on cells; test: FACS blocking: Expi293 human TIGIT cells pre-incubated with mAb, then human PVR-m2aFc; lower gMFI = more blocking
cyno TIGIT on cells [16] = target: T5, cyno TIGIT on cells; test: FACS titration on cyno TIGIT OE Expi293 cells, binding site concentration; ± 95% CI; 'Fit: Excellent'; panel of the upper row
Description: as §3

human TIGIT on cells [17] = target: T4, human TIGIT on cells; test: FACS titration on human TIGIT OE Expi293 cells, binding site concentration; ± 95% CI; 'Fit: Good/Excellent'; panel of the lower row
Description: (§4) AF647-labeled goat anti-human F(ab′) (Jackson Immunoresearch) was added to the cells to detect binding of anti-TIGIT antibodies.

human TIGIT on cells [18] = target: T4, human TIGIT on cells; test: FACS titration on human TIGIT OE Expi293 cells, binding site concentration; ± 95% CI; 'Fit: Good/Excellent'; panel of the upper row
Description: as §4

human PVRIG on cells [19] = target: T6, human PVRIG on cells (human, UniProt Q6DKI7 1-326); test: flow cytometry titration, HEK hPVRIG cells
T6 construct: whole, on cells; over-expressed on HEK cells or endogenous on Jurkat and CD8 T cells; also called hPVRIG; HEK hPVRIG cells
T6 sequence (looked up): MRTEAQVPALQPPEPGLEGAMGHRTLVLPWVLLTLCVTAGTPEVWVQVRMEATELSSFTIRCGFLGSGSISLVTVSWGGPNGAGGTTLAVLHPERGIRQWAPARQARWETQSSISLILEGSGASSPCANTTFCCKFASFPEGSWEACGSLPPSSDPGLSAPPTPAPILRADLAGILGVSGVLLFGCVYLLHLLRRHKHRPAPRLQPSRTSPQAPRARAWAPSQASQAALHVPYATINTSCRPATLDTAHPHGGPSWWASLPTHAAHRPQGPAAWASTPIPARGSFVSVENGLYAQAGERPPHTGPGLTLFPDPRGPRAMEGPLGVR
Description: These cells were cultured in DMEM (Gibco)+10% fetal calf serum (Gibco)+glutamax (Gibco). For the HEK hPVRIG over-expressing cells, 0.5 ug/ml puromycin (Gibco) was also added to the media for positive selection. For FACS analysis, all cell lines were harvested in log phase growth and 50,000-100,000 cells per well were seeded in 96 well plates. […] The titration series was conducted as 3 fold serial dilutions. […] Data was acquired using a FACS Canto II (BD Biosciences), FACS LSR Fortessa X-20 (BD Biosciences), or IntelliCyt (IntelliCyt Corporation) and analyzed using FlowJo (Treestar) and Prism (Graphpad) software.

[20] = target: T7, cynomolgus PVRIG on cells (cynomolgus, UniProt A0A2K5WVV8 41-322); test: flow cytometry titration, expi cPVRIG cells
T7 construct: whole, on cells; also called cPVRIG; expi cPVRIG cells
T7 sequence: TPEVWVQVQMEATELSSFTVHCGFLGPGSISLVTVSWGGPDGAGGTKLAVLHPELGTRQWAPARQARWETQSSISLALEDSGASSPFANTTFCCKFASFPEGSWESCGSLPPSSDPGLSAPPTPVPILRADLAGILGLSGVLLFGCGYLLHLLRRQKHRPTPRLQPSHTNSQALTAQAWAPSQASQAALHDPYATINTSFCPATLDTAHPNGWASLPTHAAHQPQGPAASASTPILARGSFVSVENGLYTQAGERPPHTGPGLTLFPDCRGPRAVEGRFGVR
Description: These cells were cultured in DMEM+10% fetal calf serum+glutamax. expi cPVRIG transient over-expressing cells were generated by electroporating cPVRIG DNA into parental expi cells using the Neon transfection system. For FACS analysis, expi cPVRIG cells were used between 1-3 days-post transfection. Parental expi cells were harvested from log growth phase. 50,000-100,000 cells of per well of each type were seeded in 96 well plates. […] The titration series were conducted as a 3-fold dilution series. […] Data was acquired using a FACS Canto II or IntelliCyte and analyzed using FlowJo and Prism software.

human PVRIG on cells [21] = target: T6, human PVRIG on cells; test: FACS competition: PVRL2 mFc binding to HEK hPVRIG cells
Description: Cells were washed twice in PBS for acquisition using a FACS Canto II. Data was analyzed using FlowJo, Excel and Prism.

human PVRIG on cells [22] = target: T6, human PVRIG on cells; test: FACS on Jurkat cells pre-incubated with Isotype (unconjugated)
Excerpt: (§5) Data was acquired using a FACS Canto II and analysed using FlowJo, Excel, and Prism.

human PVRIG on cells [23] = target: T6, human PVRIG on cells; test: FACS on Jurkat cells pre-incubated with CHA.7.518.1 (unconjugated)
Excerpt: as §5

human PVRIG on cells [24] = target: T6, human PVRIG on cells; test: FACS on Jurkat cells pre-incubated with CHA.7.538.1.2 (unconjugated)
Excerpt: as §5

human PVRIG on cells [25] = target: T6, human PVRIG on cells; test: FACS KD, cell type 'Jurkat' (table beside the curve, column 'FACS KD (nM)')
PVRIG Fc [26] = target: T8, PVRIG Fc (UniProt Q6DKI7 41-171, limits assumed, biotinylated (Example 5)); test: FACS competition: biotinylated PVRIG Fc (33 nM) binding to HEK cells with endogenous PVRL2
T8 construct: also called biotinylated PVRIG Fc protein; PVRIG-Fc-fusion protein
T8 sequence (looked up): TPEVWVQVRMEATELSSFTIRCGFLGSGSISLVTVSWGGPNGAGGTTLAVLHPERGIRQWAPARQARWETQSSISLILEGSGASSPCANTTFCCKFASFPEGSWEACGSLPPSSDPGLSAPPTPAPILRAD
Description: (§6) Cells were washed twice in PBS for acquisition using a FACS Canto II. Data was analyzed using FlowJo, Excel (Microsoft), and Prism.

[27] = target: T7, cynomolgus PVRIG on cells; test: FACS KD, cell type 'HEK293 cPVRIG' (table beside the curve, column 'FACS KD (nM)')
human PVRIG on cells [28] = target: T6, human PVRIG on cells; test: FACS KD, cell type 'HEK293 hPVRIG' (table beside the curve, column 'FACS KD (nM)')
PVRIG Fc [29] = target: T8, PVRIG Fc; test: FACS blocking assay: binding of PVRIG Fc to HEK cells that endogenously express PVRL2, with the antibody titrated
Description: as §6

mPVRL2 HIS = target: T9, mPVRL2 HIS (mouse, UniProt P32507 32-351, limits assumed); test: ELISA: soluble PVRL2 HIS titrated on plates coated with mDNAM1-mFc
T9 construct: also called mPVRL2 protein; Soluble PVRL2 HIS protein
T9 sequence (looked up): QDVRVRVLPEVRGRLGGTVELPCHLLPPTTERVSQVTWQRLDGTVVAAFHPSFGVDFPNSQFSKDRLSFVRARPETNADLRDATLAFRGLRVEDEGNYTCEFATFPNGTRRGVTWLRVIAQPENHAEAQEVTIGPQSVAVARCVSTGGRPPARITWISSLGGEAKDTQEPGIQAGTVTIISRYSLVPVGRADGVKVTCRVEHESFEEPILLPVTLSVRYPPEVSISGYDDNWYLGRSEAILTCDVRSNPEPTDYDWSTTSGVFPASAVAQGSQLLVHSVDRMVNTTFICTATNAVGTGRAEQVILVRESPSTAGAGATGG

T1 sequence (ECD with C-terminal His tag, as listed by the source): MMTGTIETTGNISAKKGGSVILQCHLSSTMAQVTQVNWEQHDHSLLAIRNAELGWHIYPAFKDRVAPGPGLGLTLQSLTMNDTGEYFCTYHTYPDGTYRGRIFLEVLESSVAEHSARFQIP

B1: BM26 hIgG4 (antibody, V domains shown)
VH: EVQLQQSGPELVKPGSSVKMSCKASGYTFSSYVMHWVKQKPGQGLEWIGYIDPYNDGAKYNEKFKGKATLTSDKSSSTAYMELSSLTSEDSAVYYCARGGPYGWYFDVWGAGTTVTVSS
VL: DIQMTQSPASLSASVGETVTITCRASEHIYSYLSWYQQKQGKSPQLLVYNAKTLAEGVPSRFSGSGSGTQFSLKINSLQPEDFGTYYCQHHFGSPLTFGAGTTLELKR
notes: benchmark anti-human TIGIT antibody, human IgG4 with S241P; also called BM26-H4; WO2016/028656A1 Clone 3106 as hIgG4
With B1 as the binder, how does the Kd (Cyno TIGIT-His [1]) read?
Its Kd is 0.0035 nM.

What about the Kd [2] of the same binder?
The Kd was 0.004 nM.

What about the Kd [3] of the same binder?
Its Kd is 0.0082 nM.

What about the Kd [4] of the same binder?
The Kd was 0.0112 nM.

What about the Kd [5] of the same binder?
The Kd was 0.0241 nM.

Does B1 bind (Mouse TIGIT-His)?
Result: no binding (tested: 92.9 nM mouse TIGIT)

What about the Kd (human TIGIT on cells [6]) of the same binder?
The Kd was 0.93 nM.

What about the Kd (human TIGIT on cells [7]) of the same binder?
The Kd was 1.4 nM.

And the Kd (human TIGIT on cells [8])?
The Kd was 0.81 nM.

What about the Kd (Cyno TIGIT-His [9]) of the same binder?
Its Kd is 0.00125 nM.

What about the IC50 (human TIGIT on cells [10]) of the same binder?
The IC50 was 0.45 nM.

What about the IC50 (human TIGIT on cells [11]) of the same binder?
The IC50 was 0.26 nM.

What about the Kd (cyno TIGIT on cells [12]) of the same binder?
Its Kd is 4.6 nM.

What about the Kd (cyno TIGIT on cells [13]) of the same binder?
The Kd was 7.5 nM.

And the Kd (cyno TIGIT on cells [14])?
The Kd was 1.12 nM.

What about the “gMFI of bound PVR-m2aFc at 266 pM mAb” value (human TIGIT on cells [15]) of the same binder?
Its value is 719.

And the “gMFI of bound PVR-m2aFc at 1.3 nM mAb” value (human TIGIT on cells [15])?
Its value is 401.

What about the “gMFI of bound PVR-m2aFc at 6.7 nM mAb” value (human TIGIT on cells [15]) of the same binder?
The value was 234.

What about the Kd (cyno TIGIT on cells [16]) of the same binder?
Its Kd is 0.69 nM.

And the Kd (human TIGIT on cells [17])?
Its Kd is 0.74 nM.

What about the Kd (human TIGIT on cells [18]) of the same binder?
The Kd was 0.44 nM.

B2: CHA.7.518.1.H4(S241P) (antibody, human IgG4 S228P, kappa, V domains shown)
VH: QVQLVQSGAEVKKPGASVKVSCKASGYTFTDYNINWVRQAPGQGLEWMGYIYPYIGGSGYAQKFQGRVTMTRDTSTSTVYMELSSLRSEDTAVYYCAREDKTARNAMDYWGQGTLVTVSS
VL: DIQMTQSPSSLSASVGDRVTITCRVSENIYSNLAWYQQKPGKAPKLLIYEATNLAEGVPSRFSGSGSGTDFTLTISSLQPEDFATYYCQHFWGTPYTFGQGTKLEIKR
notes: humanized, human IgG4 with S241P; also called anti-PVRIG
What does the source list for B2?
Kd (human PVRIG on cells [19]): 0.29 nM; Kd [20]: 0.24 nM; IC50 (human PVRIG on cells [21]): 1.8 nM; % binding relative to maximum signal (human PVRIG on cells [22]): 100%; % binding relative to maximum signal (human PVRIG on cells [23]): 14%; % binding relative to maximum signal (human PVRIG on cells [24]): 7%; Kd (human PVRIG on cells [25]): 0.15 nM; IC50 (PVRIG Fc [26]): 15 nM; Kd [27]: 0.248 nM; Kd (human PVRIG on cells [28]): 0.298 nM; IC50 (read off the curve) (PVRIG Fc [29]): ~6 nM

B3: DNAM1 Fc (Fc fusion, mouse (prefix m in FIG. 95D), UniProt Q8K4F0 19-254, looked up)
fusion chain: EETLWDTTVRLSETMTLECVYPLTHNLTQVEWTKNTGTKTVSIAVYNPNHNMHIESNYLHRVHFLNSTVGFRNMSLSFYNASEADIGIYSCLFHAFPNGPWEKKIKVVWSDSFEIAAPSDSYLSAEPGQDVTLTCQLPRTWPVQQVIWEKVQPHQVDILASCNLSQETRYTSKYLRQTRSNCSQGSMKSILIIPNAMAADSGLYRCRSEAITGKNKSFVIRLIITDGGTNKHFILP
notes: receptor part of an Fc fusion; also called mDNAM1-mFc
Does B3 bind (mPVRL2 HIS)?
Result: binds
